Experimental data as given in paper PMC4494967.

Columns and labels:
FBXW7 = FBXW7 (UniProt Q969H0); experiment: anti-myc IP, anti-HA blot; details: reference: myc-CCDC6 wild type; sites S359,S413,T427
USP7 = USP7 (UniProt Q93009); experiment: anti-myc IP, western blot; details: reference: myc-CCDC6 wild type; sites S359,S413,T427

Substance: CCDC6 (from UniProt Q16204) triple mutant S359A/S413A/T427A (TM)
- binding against the reference (FBXW7): weaker
- binding against the reference (USP7): stronger
